In assay [1] the target is PL555-PA488 dual-labeled test antibody. In words: cell-based or functional assay.
The target of assay [2] is Fab488-Fc555 dual-labeled test antibody. In words: cell-based or functional assay.

“CA125 TIPS factor (MUC16/CA125), Q8WXI7 1-14451”: the increase in 570 nm emission signal (FRET, 470 nm excitation) was 18% in assay [1] and 35% in assay [2].

(Values after US20210285960A1.)
